According to paper PMC12974146:

Biological target: Recombinant CdaA fragment spanning residues 88-273 (CdaA_(88-273)), Leptospira interrogans LIC10844 (Leptospira interrogans serovar Copenhageni strain Fiocruz L1-130)
Experiment: SEC; TSKgel G4000SWXL column, PBS as mobile phase, 1.0 mL min^-1; 50 µg of protein injected; MW estimated from a standard curve of 15-600 kDa protein standards

stoichiometry N: 2
Substance: Recombinant CdaA fragment spanning residues 88-273 (CdaA_(88-273)), Leptospira interrogans LIC10844 (domain or fragment)
